This series concerns O=C(O)c1ccc(O)c(O)c1. Nature of the series: purified protein, by the assay type. The settings on record: other: PCA substrate, 200 µM NADPH, 10 µM FAD, pH 7.9, 25° C., 340 nm.

One substance from patent US20260103686A1, “MICROBIAL STRAIN, PROTEIN, AND METHOD FOR PRODUCING GALLIC ACID USING MICROBIAL STRAIN OR PROTEIN” (UNIVERSITY OF TSUKUBA, priority 2022, published 2026) can be followed below.

Experimental: The cell-free extracts were subjected to a HisTrap HP column (GE healthcare) which was equilibrated with an equilibration buffer (20 mM Tris-HCl buffer (pH 7.9), 20 mM imidazole), and then fractions eluted with an eluent (20 mM Tris-HCl buffer (pH 7.9), 500 mM imidazole) were collected.
The protein concentrations of the purified enzyme liquids were measured using Bio-Rad Protein Assay Dye Reagent Concentrate (Bio-Rad, USA), and the purified enzyme liquids were diluted to 1 of mg/mL with a buffer. Thus, purified enzyme liquids protocatechuic acid 5-hydroxylases, HgPobA, HyPobA, PoPobA, HgPobA-TY and PaPobA, were prepared.
Using the purified enzyme liquids of HgPobA, HgPobA-TY, PoPobA, HyPobA and PaPobA described above, a reaction kinetic analysis was conducted.

Usually Km stands for the concentration of substrate that gives half-maximal velocity. For the substance “Pseudomonas aeruginosa-derived PobA (PaPobA), p-hydroxybenzoate hydroxylase, wild type, SEQ ID NO: 28 (Pseudomonas aeruginosa PAO1)”, the Km came to 140 µM.
